Measurements published in US20130039933.

What was measured:
[1] = biological target: S366 peptide (STING peptide substrate with serine 366)
[2] = biological target: A366 peptide (STING peptide substrate with alanine at 366)

B1: NEK2 (protein)
chain: MPSRAEDYEVLYTIGTGSYGRCQKIRRKSDGKILVWKELDYGSMTEAEKQMLVSEVNLLRELKHPNIVRYYDRIIDRTNTTLYIVMEYCEGGDLASVITKGTKERQYLDEEFVLRVMTQLTLALKECHRRSDGGHTVLHRDLKPANVFLDGKQNVKLGDFGLARILNHDTSFAKTFVGTPYYMSPEQMNRMSYNEKSDIWSLGCLLYELCALMPPFTAFSQKELAGKIREGKFRRIPYRYSDELNEIITRMLNLKDYHRPSVEEILENPLIADLVADEQRRNLERRGRQLGEPEKSQDSSPVLSELKLKEIQLQERERALKAREERLEQKEQELCVRERLAEDKLARAENLLKNYSLLKERKFLSLASNPELLNLPSSVIKKKVHFSGESKENIMRSENSESQLTSKSKCKDLKKRLHAAQLRAQALSDIEKNYQLKSRQILGMR
[1]
  Activity (cpm): 162000 cpm
  Fold induction: 18.6 fold
[2]
  Activity (cpm): 8700 cpm

B2: MEKK1 (protein)
chain: NQKCKEKMEAEEEEALAIAMAMSASQDALPIVPQLQVENGEDIIIIQQDTPETLPGHTKAKQPYREDTEWLKGQQIGLGAFSSCYQAQDVGTGTLMAVKQVTYVRNTSSEQEEVVEALREEIRMMSHLNHPNIIRMLGATCEKSNYNLFIEWMAGGSVAHLLSKYGAFKESVVINYTEQLLRGLSYLHENQIIHRDVKGANLLIDSTGQRLRIADFGAAARLASKGTGAGEFQGQLLGTIAFMAPEVLRGQQYGRSCDVWSVGCAIIEMACAKPPWNAEKHSNHLALIFKIASATTAPSIPSHLSPGLRDVALRCLELQPQDRPPSRELLKHPVFRTTW
[1]
  Activity (cpm): 24900 cpm
  Fold induction: 2.2 fold
[2]
  Activity (cpm): 11300 cpm

B3: NEK9 (protein)
chain: MSVLGEYERHCDSINSDFGSESGGCGDSSPGPSASQGPRAGGGAAEQEELHYIPIRVLGRGAFGEATLYRRTEDDSLVVWKEVDLTRLSEKERRDALNEIVILALLQHDNIIAYYNHFMDNTTLLIELEYCNGGNLYDKILRQKDKLFEEEMVVWYLFQIVSAVSCIHKAGILHRDIKTLNIFLTKANLIKLGDYGLAKKLNSEYSMAETLVGTPYYMSPELCQGVKYNFKSDIWAVGCVIFELLTLKRTFDATNPLNLCVKIVQGIRAMEVDSSQYSLELIQMVHSCLDQDPEQRPTADELLDRPLLRKRRREMEEKVTLLNAPTKRPRSSTVTEAPIAVVTSRTSEVYVWGGGKSTPQKLDVIKSGCSARQVCAGNTHFAVVTVEKELYTWVNMQGGTKLHGQLGHGDKASYRQPKHVEKLQGKAIRQVSCGDDFTVCVTDEGQLYAFGSDYYGCMGVDKVAGPEVLEPMQLNFFLSNPVEQVSCGDNHVVVLTRNKEVYSWGCGEYGRLGLDSEEDYYTPQKVDVPKALIIVAVQCGCDGTFLLTQSGKVLACGLNEFNKLGLNQCMSGIINHEAYHEVPYTTSFTLAKQLSFYKIRTIAPGKTHTAAIDERGRLLTFGCNKCGQLGVGNYKKRLGINLLGGPLGGKQVIRVSCGDEFTIAATDDNHIFAWGNGGNGRLAMTPTERPHGSDICTSWPRPIFGSLHHVPDLSCRGWHTILIVEKVLNSKTIRSNSSGLSIGTVFQSSSPGGGGGGGGGEEEDSQQESETPDPSGGFRGTMEADRGMEGLISPTEAMGNSNGASSSCPGWLRKELENAEFIPMPDSPSPLSAAFSESEKDTLPYEELQGLKVASEAPLEHKPQVEASSPRLNPAVTCAGKGTPLTPPACACSSLQVEVERLQGLVLKCLAEQQKLQQENLQIFTQLQKLNKKLEGGQQVGMHSKGTQTAKEEMEMDPKPDLDSDSWCLLGTDSCRPSL
[1]
  Activity (cpm): 26300 cpm
  Fold induction: 3.77 fold
[2]
  Activity (cpm): 6980 cpm

B4: RIPK5 (protein)
chain: FAASLRQLEAGHSGRLEKTEDLWLRVRKDHAPRLARLSLESCSLQDVLLHRKPKLGQELGRGQYGVVYLCDNWGGHFPCALKSVVPPDEKHWNDLALEFHYMRSLPKHERLVDLHGSVIDYNYGGGSSIAVLLIMERLHRDLYTGLKAGLTLETRLQIALDVVEGIRFLHSQGLVHRDIKLKNVLLDKQNRAKITDLGFCKPEAMMSGSIVGTPIHMAPELFTGKYDNSVDVYAFGILFWYICSGSVKLPEAFERCASKDHLWNNVRRGARPERLPVFDEECWQLMEACWDGDPLKRPLLGIVQPMLQGIMNRLCKSNSEQPNRGLDDST
[1]
  Activity (cpm): 16000 cpm
  Fold induction: 12 fold
[2]
  Activity (cpm): 1330 cpm

B5: IRAK4 (protein)
chain: MNKPITPSTYVRCLNVGLIRKLSDFIDPQEGWKKLAVAIKKPSGDDRYNQFHIRRFEALLQTGKSPTSELLFDWGTTNCTVGDLVDLLIQNEFFAPASLLLPDAVPKTANTLPSKEAITVQQKQMPFCDKDRTLMTPVQNLEQSYMPPDSSSPENKSLEVSDTRFHSFSFYELKNVTNNFDERPISVGGNKMGEGGFGVVYKGYVNNTTVAVKKLAAMVDITTEELKQQFDQEIKVMAKCQHENLVELLGFSSDGDDLCLVYVYMPNGSLLDRLSCLDGTPPLSWHMRCKIAQGAANGINFLHENHHIHRDIKSANILLDEAFTAKISDFGLARASEKFAQTVMTSRIVGTTAYMAPEALRGEITPKSDIYSFGVVLLEIITGLPAVDEHREPQLLLDIKEEIEDEEKTIEDYIDKKMNDADSTSVEAMYSVASQCLHEKKNKRPDIKKVQQLLQEMTAS
[1]
  Activity (cpm): 50400 cpm
  Fold induction: 6.77 fold
[2]
  Activity (cpm): 7440 cpm

B6: PKCι (protein)
chain: MPTQRDSSTMSHTVAGGGSGDHSHQVRVKAYYRGDIMITHFEPSISFEGLCNEVRDMCSFDNEQLFTMKWIDEEGDPCTVSSQLELEEAFRLYELNKDSELLIHVFPCVPERPGMPCPGEDKSIYRRGARRWRKLYCANGHTFQAKRFNRRAHCAICTDRIWGLGRQGYKCINCKLLVHKKCHKLVTIECGRHSLPQEPVMPMDQSSMHSDHAQTVIPYNPSSHESLDQVGEEKEAMNTRESGKASSSLGLQDFDLLRVIGRGSYAKVLLVRLKKTDRIYAMKVVKKELVNDDEDIDWVQTEKHVFEQASNHPFLVGLHSCFQTESRLFFVIEYVNGGDLMFHMQRQRKLPEEHARFYSAEISLALNYLHERGIIYRDLKLDNVLLDSEGHIKLTDYGMCKEGLRPGDTTSTFCGTPNYIAPEILRGEDYGFSVDWWALGVLMFEMMAGRSPFDIVGSSDNPDQNTEDYLFQVILEKQIRIPRSLSVKAASVLKSFLNKDPKERLGCHPQTGFADIQGHPFFRNVDWDMMEQKQVVPPFKPNISGEFGLDNFDSQFTNEPVQLTPDDDDIVRKIDQSEFEGFEYINPLLMSAEECV
[1]
  Activity (cpm): 12800 cpm
  Fold induction: 1.88 fold
[2]
  Activity (cpm): 6810 cpm

B7: IKKα (protein)
chain: MERPPGLRPGAGGPWEMRERLGTGGFGNVCLYQHRELDLKIAIKSCRLELSTKNRERWCHEIQIMKKLNHANVVKACDVPEELNILIHDVPLLAMEYCSGGDLRKLLNKPENCCGLKESQILSLLSDIGSGIRYLHENKIIHRDLKPENIVLQDVGGKIIHKIIDLGYAKDVDQGSLCTSFVGTLQYLAPELFENKPYTATVDYWSFGTMVFECIAGYRPFLHHLQPFTWHEKIKKKDPKCIFACEEMSGEVRFSSHLPQPNSLCSLVVEPMENWLQLMLNWDPQQRGGPVDLTLKQPRCFVLMDHILNLKIVHILNMTSAKIISFLLPPDESLHSLQSRIERETGINTGSQELLSETGISLDPRKPASQCVLDGVRGCDSYMVYLFDKSKTVYEGPFASRSLSDCVNYIVQDSKIQLPIIQLRKVWAEAVHYVSGLKEDYSRLFQGQRAAMLSLLRYNANLTKMKNTLISASQQLKAKLEFFHKSIQLDLERYSEQMTYGISSEKMLKAWKEMEEKAIHYAEVGVIGYLEDQIMSLHAEIMELQKSPYGRRQGDLMESLEQRAIDLYKQLKHRPSDHSYSDSTEMVKIIVHTVQSQDRVLKELFGHLSKLLGCKQKIIDLLPKVEVALSNIKEADNTVMFMQGKRQKEIWHLLKIACTQSSARSLVGSSLEGAVTPQTSAWLPPTSAEHDHSLSCVVTPQDGETSAQMIEENLNCLGHLSTIIHEANEEQGNSMMNLDWSWLTE
[1]
  Activity (cpm): 6890 cpm
  Fold induction: 2.83 fold
[2]
  Activity (cpm): 2430 cpm
